Test results as given in the DeepSol protein solubility set.

Assay: soluble on expression in E. coli; label from the status in PepcDB or PDB records

Soluble on expression in E. coli, soluble:
ADQRIKVAKPVVEMDGDEMTRIIWQFIKEKLILPHVDVQLKYFDLGLPNRDQTNDQVTIDSALATQKYSVAVKCATITPDEARVEEFKLKKMWKSPNGTIRNILGGTVFREPIICKNIPRLVPGWTKPITIGRHAHGDQYKATDFVVDRAGTFKIVFTPKDGSSAKQWEVYNFPAGGVGMGMYNTDESISGFAHSCFQYAIQKKWPLYMSTKNTILKAYDGRFKDIFQEIFEKHYKTDFDKYKIWYEHRLIDDMVAQVLKSSGGFVWACKNYDGDVQSDILAQGFGSLGLMTSVLVCPDGKTIEAEAAHGTVTRHYREHQKGRPTSTNPIASIFAWTRGLEHRGKLDGNQDLIRFAQTLEKVCVETVESGAMTKDLAGCIHGLSNVKLNEHFLNTSDFLDTIKSNLDRALGRQ
MAVAANKRSVMTLFSGPTDIYSHQVRIVLAEKGVSFEIEHVEKDNPPQDLIDLNPNQSVPTLVDRELTLWESRIIMEYLDERFPHPPLMPVYPVARGESRLYMHRIEKDWYTLMNTIINGSASEADAARKQLREELLAIAPVFGQKPYFLSDEFSLVDCYLAPLLWRLPQLGIEFSGPGAKELKGYMTRVFERDSFLASLTEAEREMRLGRS
MKPKTLSPILTAKGVRLAIAVGRFNERVTKLLLEGALEAYARLGGDPAEVLVAWVPGSFELPLVAKRLAQRPDVDAVVALGAVIRGETPHFEYVAGQAASGLMQAMLQTEKPIVFGVLTTNTPEEAQERAGGKAGNKGAEAVFTAIEMVRLLEAISR
MSLSQNASVGIVMPQKIPFEMPLVLENGKTLPRFDLMIETYGELNAEKNNAVLICHALSGNHHVAGRHSAEDKYTGWWDNMVGPGKPIDTERFFVVGLNNLGGCDGSSGPLSINPETGREYGADFPVVTVKDWVKSQAALADYLGIEQWAAIVGGSLGGMQALQWTISYPERVRHALVIASAPKLSTQNIAFNDVARQAILTDPDFNEGHYRSHNTVPARGLRIARMMGHITYLAEDGLGKKFGRDLRSNGYQYGFGVEFEVESYLRYQGDKFVGRFDANTYLLMTKALDYFDPAADFGDSLTRALQNVKAKFFVASFSTDWRFAPERSHELVKALIAAQKSVQYIEVKSAHGHDAFLMEDEAYMRAVAAYMNNVYKECQQEGHHHHHH
SSRKSGIGHEASLKRKAEEKLESYRKKIHMKNQAEEKAAEQFRMRLKNKQDEMKLEGDLRRSQRACQQLDVQKNIQVPREAWYWLRLEEETEEDEEEKEQDEDEYKSEDLSVLEKLQILTSYLREEHLYCIWCGTAYEDKEDLSSNCPGPTSADHD
GVVGSDARSRGRVPGYASSSLYRESGIISARQLALLQRMLPRLRLEQLFRCEWLQQRLARGLALGREEVRQILLCAAQDDDGWCAELGDRVNLAVPQSMIDWVLLPVYGWWESLLDQAIPGWRLSLVELETQSRQLRIKSEFWSRVAELEPEQAREELARVAKCQARTQEQVAELAGKLETASALAKSAWPNWQRGMATLLASGGLAGFEPIPEVLECLWQPLCRLDDDVGAADAVQAWLHERNLCQAQDHFYWQS

Soluble on expression in E. coli, not soluble:
MGSDKIHHHHHHQPPFPAPPAVRDIDCLEQDLMVYARALPQPDAPLLTLQDQERQTGFFLRRFFAAWDMRAPSMPRHTMFADLRATLDGKGWGANLLPVPPARTESLWQRCRTGEYPSLAVPAIITGNTSLRMAPDDEPFFRDPARAGEGYPFDYFQYSALWAGMPVFVVHASSDGGWLLCETPLAAGWVRARDVAYVDSGFMNAYRTGMYAAVVADDTPLRTAEGRWVLTAHTGAVFPVDKADAAGLVLRVPVRGADGGAGIRLVHVSYGAAARMPLPLTPVAVAMVGNGMMRQPYGWGGLLENRDCSAAMHDLFAPFGIWLPRNSSQQARAGALVSLEEMTPPQREAHILEQGVPFFSFIWMRGHIGLYLGPDRQDCAAGKPLMFHNVWGIRTGGGRAPEGRLVIGRAVVTTLHAGEEYPQVRKNWMLDRIRGLTLLPPQVP
MSLSLWWKRAKARMTESVTYYQEPAFEKLLPDPDPTFERPYTLCLSLDDLLIHSEWTREHGWRIAKRPGVDYFIRYLSQYYELVLFTTTPYATGEPVMRKLDPFRLILWPLYREATKFEDGEIVKDLSYLNRDLSKVIIIDTKAKHVRNQPDNAIILDPWKGDKDDKNLVNLIPFLEYIHTMQYSDVRKVIKSFDGKDIPTEGHHHHHH
MGSDKIHHHHHHMRNIVKRFGSLVANDHINFEVKRGEIHGLLGENGAGKTTLMNILYGIYQPDEGEIIFEGKKVRFKSPKDAISAGIGMVHQHFMLVPRMNVLQNIVLGYRTPSDPLINHRWVEERIERLSEKYGIDVALYEVIMNLSVGEEQRVEILKALFRDVKLLILDEPTAVLTPQEVDSLFYALKSMTKSGLTIIFITHKLKEALKVTDRITVLRRGRKVGTVITSETNERELTRMMVGRDIVLDITKPPSTPGREVLRVEDLWVRDERGNYAVKGVSFSIREGEIFGIAGVSGNGQKELEEAIAGLRKVERGRIILDGKDITAKGVAEREDIAYIPEDRIGVGLAPSLSVLENLMLKDFKKYKKRFSLNFEEMEKRAMSLVEEFSVKTPSLHSPAGTLSGGNIQRLILARELSRNPRLIIASQPTRGLDVAGIDYVRRRLIEAAMRGSAVLLISEDLDEIFQLSDRIGVMYEGEIRGIVDRKNANYEKIGYLMAGGLEVAA
VAYLTEVVVNEVVEAHEVPEVQHALNINSSESLIHIVRTRRLNQHVKIVDEDYFLKSIVSDIGNDVASDSIYDYLEKVLNLNISYSSKSITFEPFDEQAYQLFGDVSVAYSATVRSIVYLENTMPFQYNISKHLA
MGSDKIHHHHHHMRNVKIDEVDRLDRDVVALGNDYAQGFILPPHQHRRAQLLYGATGLMYVTTQDGEWVVPPQHAVWIPPETVHAVRFAGVTTRSLYIEPDCVAAFIKHRRCEVISVSPLLRQLLLEAVDLPPLYDSPRDRALIQLMLLELAAMPVREFDIPLPQHPALLALCQAFLLNPSIHDPAARWARALFMSPSTFRRHFLKQLGLSFSAWRQRACVVSALAWLIAGKPVNEVALSLGYDNASSFATMFRRVTGQPPSFYHPA
MAHHHHHHMGKKRFYAVAVGRQTGVFSTWEECQKQVSGFSGARFKSFLTLQEAQAYASGVQDVEPGSVGTSLVADSHTPVLVGVKRALSLDVTLDAVEVDAADDGNEVDDESKQQVLSPEWVEARKREAVVVYVDGACRNNGSRSRERRPRAGFGGFYGDGDSRNFKFPLPAHEPQTNQRAELSALIHVLRVALDSHPCYNLCVYSDSKYTVMGVNSYLHRWERNGFKTAGGGDVANIDLWSQLTKLRNRHLSRCAERFTMEFRFKASLAAIAARAVALQLKHVPGHAGVYGNEMADRLAVEACESPFG
MISLFSPCHLSAALLISALSIVPTNAAPSPVSSPFTVNATVLTGCVLGGGATDSSNFGSINFGNITSLATAINATSGLNAGTITIQCNGNPSVTLALNSGANMTGNISAGRHLLNSSTGEYLLYQIYQNSPRTLIWGDGSNGGATQVIATDGTLQQVILYAQLFASNTQPTAGVYLDTLLVTVTY
MRTVVPFDPRDPKSRLAEFFADAEERRGFAYAMLADVLGAVRDAGGDPVVVATAPVSRPVDAPVTVDDRALSTAVAAAIADGPLPTAVVMADLALATPDAIRRVFAASGDVVLAPGSGGGTNVVLARTADVPVSYHGVSFRDHVTAAERAGLTVTTVDSFRLAADVDDASDLVDVFVHNTRRTREWLIAGGWRLAVDDGTPTVVREPND
MEQSVANLVDMRDVSFTRGNRCIFDNISLTVPRGKITAIMGPSGIGKTTLLRLIGGQIAPDHGEILFDGENIPAMSRSRLYTVRKRMSMLFQSGALFTDMNVFDNVAYPLREHTQLPAPLLHSTVMMKLEAVGLRGAAKLMPSELSGGMARRAALARAIALEPDLIMFDEPFVGQDPITMGVLVKLISELNSALGVTCVVVSHDVPEVLSIADHAWILADKKIVAHGSAQALQANPDPRVRQFLDGIADGPVPFRYPAGDYHADLLPGS
